Laboratory results reported in the Human Domainome abundance scans (Beltran et al. 2025).

B1: Ankyrin-2, residues 3571 to 3650; numbered along this chain, Q01484 (parent)
chain: ERLAYIADHLGFSWTELARELDFTEEQIHQIRIENPNSLQDQSHALLKYWLERDGKHATDTNLVECLTKINRMDIVHLME

Variants of: B1
Assay: abundance fitness (aPCA) (normalised: wild type 0, dead -1); higher = more abundant; growth selection in yeast, the domain comes from the species named
Conditions: Homo sapiens

Abundance fitness: each site, then its substitutions
F12: W 0.005, N -0.158, I 0.019, T -0.031, E -0.191, V -0.045, P -0.168, M 0.028, K -0.143, L -0.068, R -0.041, G 0.005, H -0.128, C -0.04, D -0.312, A 0.038
H9: V -0.043, A -0.113, D 0.021, P -0.268, R -0.032, L -0.02, T -0.33, C 0.006, G -0.025, K -0.232, Y -0.409
A18: P -1.17, T -0.903, W -0.859, S -0.196, F -1.07, L -1.03, M -0.519, R -1.37, V -0.687, G -0.128, D -0.514
R19: M 0.083, A -0.076, D -0.006, F -0.195, P -0.208, N 0.015, H 0.028, L -0.025, Q 0.046, C -0.089, W 0.001, E 0.101, I 0.049, G -0.004, Y -0.396, S -0.101, K 0.077
S13: M -0.129, C -0.25, L -0.306, Q 0.059, F -0.036, P -0.291, W -0.17, G -0.035, A -0.097, V -0.214, Y -0.228, R -0.077, K -0.224
E20: Q -0.169, S -0.076, V -0.003, C -0.156, L -0.083, M 0.089, G -0.095, F -0.098, R -0.057, W -0.156, A -0.118, P -0.814, T -0.025, D 0.018, Y -0.1
L21: E -0.849, Q -0.24, V -0.225, M -0.107, G -0.072, T -0.412, F 0.069, I -0.268, N -0.149, W -0.093, A -0.086, S -0.33, C -0.488, K -0.32
E16: L 0.032, M -0.056, P -0.233, W -0.297, V -0.104, R 0.026, G -0.065, D 0.053, F -0.09, I 0.061, H 0.028, Q 0.202, S -0.028, N 0.026, T 0.038, A -0.037
L17: R -1.23, I -0.024, T -0.235, G -1.04, W -0.692, H -0.91, Y -0.478, P -1.17, A -0.134, S -1.03, M -0.119, V -0.096, C -0.035, F 0.08, N -1.15, E -1.05
F23: Q -0.912, E -1.17, T -0.211, P -1.07, L -0.066, H -0.663, K -0.983, R -1.05, M -0.021, C -0.184, A -0.177, G -1.17, I 0.047, S -0.575, W -0.442, V -0.174
D22: N -0.111, A -0.05, M -0.075, V -0.206, Q 0.017, Y -0.158, W -0.223, G -0.075, E -0.217, C -0.167, S 0.012, T -0.048, F -0.039, I -0.14, K -0.051, H -0.017
R2: D 0.107, V 0.024, W 0.056, P -0.454, S 0.026, G -0.208
